Test results: patent US20250051407A1, “De novo designed sequence-specific DNA binding proteins” (University of Washington, priority 2023, published 2025)

Assays:
[1] = test system: biotinylated target dsDNA with non-biotinylated competitor dsDNA; test: Yeast display competition assay with base-substituted competitor dsDNA; type: binding; conditions: all possible base mutations at each position of the competitor oligo
[2] = test system: synTF-specific cis-regulatory elements (CRE) in HEK293T cells; test: Transcriptional activation by synTFs in HEK293T cells (ENGRAM); type: cell-based; conditions: DBP fused to GCN4 dimerization domain and VP64; HEK293T cells expressing PEmax; dependent on spacing between motifs
Outline: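 GCN4–VP64 fusions were co-transfected into PEmax-expressing HEK293T cells with barcoded pegRNA recorders driven by CREs of 4 palindromic repeats (spacings 1, 3 or 5 bp), with a TCF-LEF recorder as control (ratio 2:2:2:1). After 2 days, the HEK3 DNA TAPE was sequenced. Activation is given as barcode fold change versus control, in triplicate.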

13 unique dsDNA targets = test: All-by-all yeast surface display screen of DBP design hits; type: binding
Outline: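 EBY100 yeast displaying designs were induced 16–24 h at 30°C, then labelled with biotinylated dsDNA either with avidity (SAPE premixed at one-quarter of target concentration) or without (target, then SAPE/FITC). Competition ran without avidity at 1 μM biotinylated duplex plus 8 μM unlabelled competitor. Flow cytometry read-out is the SAPE/FITC ratio over gated expressing cells.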

B1: DBP48: designed DNA-binding protein, SEQ ID NO: 22, DNA target D (protein)
chain: MTPEEIAEAKRIGKEVKERRKELGLTQRELAEKLGVSRSTVSDIENGRRLPSEELLKKIKEILGV
- DNA binding site specificity [1]: specificities consistent with the designed sidechain-base interactions
- Fold activation of synTFs measured as normalized barcode abundance in the DNA TAPE [2]: didn't show detectable activation
- Number of the 13 tested DNA target sequences preferentially bound (13 unique dsDNA targets; 1 μM dsDNA with avidity, including designed target sequence): less than 3
- Binding specificity versus design models (13 unique dsDNA targets; all-by-all screen with Rosetta-predicted motifs): bound with specificity closely consistent with the design models
- Binding to initial design target (13 unique dsDNA targets; yeast surface display, 1 μM dsDNA with avidity): bound weakly
- Binding to alternate target sequence (13 unique dsDNA targets; yeast surface display, 1 μM dsDNA with avidity, alternate target H (DBP90), D (DBP48), C (DBP57)): strongly
